Measured values published in article PMC7515910, “Functional genetic encoding of sulfotyrosine in mammalian cells” (Nature Communications, 2020).

Molecular target: the molecule itself
Test: crystal structure; sTyrRS (a.a. 1-322, 9 mg/mL) with 2 mM sulfotyrosine; sitting drop vapor diffusion at 15 °C; ammonium sulfate (2.2 M), PEG 400 (2.5-3%), HEPES (0.1 M, pH 7.5); 1.78 Å

B1: evolved sTyrRS amino acid activation domain (a.a. 1-322) (enzyme, E. coli, UniProt P0AGJ9 1-322, looked up)
chain: MASSNLIKQLQERGLVAQVTDEEALAERLAQGPIALYCGFDPTADSLHLGHLVPLLCLKRFQQAGHKPVAVVGGATGLIGDPSFKAAERKLNTEETVQEWVDKIRKQVAPFLDFDCGENSAIAANNYDFFGNMNVLTFLRDIGKHFSVNQMINKEAVKQRLNREDQGISFTEFSYNLLQGYGFACLNKQYGVVLQIGGSDQWGNITSGIDLTRRLHQNQVFGLTVPLITKADGTKFGKTEGGAVWLDPKKTSPYKFYQFWINTADADVYRFLKFFTFMSIEEINALEEEDKNSGKAPRAQYVLAEQVTRLVHGEEGLQAAKR
notes: Y37 unchanged; Crystallised in complex with the small molecule sulfotyrosine (2 mM); also called sTyrRS (1-322); sTyrRS1-322; source: E. coli BL21(DE3), purified (Ni resin, Ulp1 cleavage, Superdex 200 gel filtration); not shown: 6xHis, N-terminal, cleaved; SUMO, N-terminal, cleaved
  stoichiometry N: 2
